Results reported in US6649396.

Biological target: native fiber receptors
Test: cell-based or functional assay

| Substance | decrease in expression of luciferase after AdCMVLuc infection of mock-transfected HeLa cells and HeLa cells expressing the irrelevant sFv [%] |
| --- | --- |
| recombinant Ad5 knob (from UniProt P11818 386-581) | > 95 |
| recombinant Ad2 knob (from UniProt P03275 388-582) | > 95 |
